Results taken from patent EP1506972A1 (Genentech Inc., dated 2005).

How the values were obtained:
Assay in all cases: competitive phage ELISA, soluble IGFBP-1 vs coated IGFBP-1
[1] = molecular target: T1, IGF-I E9A (G1S-A70V background) displayed on phage (human; bacteriophage M13)
T1 construct: not shown: M13 gene III fragment (residues 249-406, display carrier) and the IGF-g3 junction
T1 chain: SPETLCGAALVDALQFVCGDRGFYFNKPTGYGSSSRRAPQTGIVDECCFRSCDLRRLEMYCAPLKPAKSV

[2] = molecular target: T2, IGF-I F16A (G1S-A70V background) displayed on phage (human; bacteriophage M13)
T2 construct: not shown: M13 gene III fragment (residues 249-406, display carrier) and the IGF-g3 junction
T2 chain: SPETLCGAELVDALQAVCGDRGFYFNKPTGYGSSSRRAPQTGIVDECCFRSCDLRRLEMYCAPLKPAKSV

[3] = molecular target: T3, IGF-I K27A (G1S-A70V background) displayed on phage (human; bacteriophage M13)
T3 construct: not shown: Display carrier: M13 gene III protein fragment (residues 249-406) and the junction to it
T3 chain: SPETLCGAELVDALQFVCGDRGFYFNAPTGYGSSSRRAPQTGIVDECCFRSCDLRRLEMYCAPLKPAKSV

[4] = molecular target: T4, IGF-I G30A (G1S-A70V background) displayed on phage (human; bacteriophage M13)
T4 construct: not shown: Display carrier: M13 gene III protein fragment (residues 249-406) and the junction to it
T4 chain: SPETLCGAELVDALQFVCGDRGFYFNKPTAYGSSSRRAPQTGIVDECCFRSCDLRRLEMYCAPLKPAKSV

[5] = molecular target: T5, IGF-I Y31A (G1S-A70V background) displayed on phage (human; bacteriophage M13)
T5 construct: not shown: Display carrier: M13 gene III protein fragment (residues 249-406) and the junction to it
T5 chain: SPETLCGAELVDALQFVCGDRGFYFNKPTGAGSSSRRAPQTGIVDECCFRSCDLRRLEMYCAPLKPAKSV

[6] = molecular target: T6, IGF-I G32A (G1S-A70V background) displayed on phage (human; bacteriophage M13)
T6 construct: not shown: Display carrier: M13 gene III protein fragment (residues 249-406) and the junction to it
T6 chain: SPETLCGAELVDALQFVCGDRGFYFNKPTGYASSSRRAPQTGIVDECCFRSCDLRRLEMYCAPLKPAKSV

[7] = molecular target: T7, wild-type IGF-I displayed on phage (double mutation restoring wild type) (human; bacteriophage M13, UniProt P69168 267-424)
T7 construct: range 249-406; also called IGF-I WT; WT

[8] = molecular target: T8, IGF-I D45A (G1S-A70V background) displayed on phage (human; bacteriophage M13)
T8 construct: not shown: Display carrier: M13 gene III protein fragment (residues 249-406) and the junction to it
T8 chain: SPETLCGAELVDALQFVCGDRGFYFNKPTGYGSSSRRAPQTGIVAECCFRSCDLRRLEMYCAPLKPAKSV

[9] = molecular target: T9, IGF-I S51A (G1S-A70V background) displayed on phage (human; bacteriophage M13)
T9 construct: not shown: Display carrier: M13 gene III protein fragment (residues 249-406) and the junction to it
T9 chain: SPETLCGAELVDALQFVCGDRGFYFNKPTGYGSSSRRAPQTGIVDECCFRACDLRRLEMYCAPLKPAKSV

[10] = molecular target: T10, IGF-I R55A (G1S-A70V background) displayed on phage (human; bacteriophage M13)
T10 construct: not shown: Display carrier: M13 gene III protein fragment (residues 249-406) and the junction to it
T10 chain: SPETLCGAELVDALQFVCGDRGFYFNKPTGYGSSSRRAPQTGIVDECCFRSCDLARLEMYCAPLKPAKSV

[11] = molecular target: T11, IGF-I E58A (G1S-A70V background) displayed on phage (human; bacteriophage M13)
T11 construct: not shown: M13 gene III fragment (residues 249-406), the display partner, and its junction to IGF-I
T11 chain: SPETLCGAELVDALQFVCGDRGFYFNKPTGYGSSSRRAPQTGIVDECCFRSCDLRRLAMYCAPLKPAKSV

[12] = molecular target: T12, IGF-I M59A (G1S-A70V background) displayed on phage (human; bacteriophage M13)
T12 construct: not shown: M13 gene III fragment (residues 249-406), the display partner, and its junction to IGF-I
T12 chain: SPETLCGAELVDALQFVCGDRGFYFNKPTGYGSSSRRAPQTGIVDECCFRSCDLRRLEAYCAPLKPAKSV

[13] = molecular target: T13, IGF-I Y60A (G1S-A70V background) displayed on phage (human; bacteriophage M13)
T13 construct: not shown: M13 gene III fragment (residues 249-406), the display partner, and its junction to IGF-I
T13 chain: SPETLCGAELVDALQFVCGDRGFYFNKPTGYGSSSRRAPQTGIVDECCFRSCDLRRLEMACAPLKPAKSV

[14] = molecular target: T14, IGF-I P63A (G1S-A70V background) displayed on phage (human; bacteriophage M13)
T14 construct: not shown: M13 gene III fragment (residues 249-406), the display partner, and its junction to IGF-I
T14 chain: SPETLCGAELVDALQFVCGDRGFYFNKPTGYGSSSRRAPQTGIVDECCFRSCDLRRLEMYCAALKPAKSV

[15] = molecular target: T15, IGF-I S69A (G1S-A70V background) displayed on phage (human; bacteriophage M13)
T15 construct: not shown: Display carrier: M13 gene III protein fragment (residues 249-406) and its junction to Val70

[16] = molecular target: T16, des(1-2)-IGF-I displayed on phage (human; bacteriophage M13)
T16 construct: range 249-406; Lacks positions 1 and 2

[17] = molecular target: T17, IGF-I T4A (G1S-A70V background) displayed on phage (human; bacteriophage M13)
T17 construct: not shown: The display carrier: M13 gene III protein fragment (residues 249-406) and the junction to it
T17 chain: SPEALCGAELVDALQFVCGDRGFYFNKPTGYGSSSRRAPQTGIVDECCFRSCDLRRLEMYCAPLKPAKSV

B1: human IGFBP-1 (other, UniProt P08833 26-259, looked up)
chain: APWQCAPCSAEKLALCPPVSASCSEVTRSAGCGCCPMCALPLGAACGVATARCARGLSCRALPGEQQPLHALTRGQGACVQESDASAPHAAEAGSPESPESTEITEEELLDNFHLMAPSEEDHSILWDAISTYDGSKALHVTNIKKWKEPCRIELYRVVESLAKAQETSGEEISKFYLPNCNKNGFYHSRQCETSMDGEAGLCWCVYPWNGKRIPGSPEIRGDPNCQIYFNVQN
notes: Secreted recombinant protein
[1]
  relative IC50 (IC50mut/IC50 G1S-A70V): 1 fold
[2]
  relative IC50 (IC50mut/IC50 G1S-A70V): 7 fold
[3]
  relative IC50 (IC50mut/IC50 G1S-A70V): 1.6 fold
[4]
  relative IC50 (IC50mut/IC50 G1S-A70V): 0.9 fold
[5]
  relative IC50 (IC50mut/IC50 G1S-A70V): 0.8 fold
[6]
  relative IC50 (IC50mut/IC50 G1S-A70V): 1.3 fold
[7]
  relative IC50 (IC50mut/IC50 G1S-A70V): 1 fold
[8]
  relative IC50 (IC50mut/IC50 G1S-A70V): 0.6 fold
[9]
  relative IC50 (IC50mut/IC50 G1S-A70V): 1.6 fold
[10]
  relative IC50 (IC50mut/IC50 G1S-A70V): 1.1 fold
[11]
  relative IC50 (IC50mut/IC50 G1S-A70V): 1.5 fold
[12]
  relative IC50 (IC50mut/IC50 G1S-A70V): 1.6 fold
[13]
  relative IC50 (IC50mut/IC50 G1S-A70V): 0.8 fold
[14]
  relative IC50 (IC50mut/IC50 G1S-A70V): > 100 fold
[15]
  relative IC50 (IC50mut/IC50 G1S-A70V): 1.6 fold
[16]
  relative IC50 (IC50mut/IC50 G1S-A70V): 0.6 fold
[17]
  relative IC50 (IC50mut/IC50 G1S-A70V): 2.4 fold
